Assay results taken from patent publication US20070071744A1 (published 2007).
Ends that are not written are not given here.

What was measured:
Experiment in all cases: PepSpot peptide array
[1] = molecular target: T1, peptide 41 (human)
T1 peptide: Ac-SLAGRYRCSYQNG
Protocol: (§1) The peptides were synthesized on a cellulose membrane in a stepwise manner resulting in a defined arrangement (peptide array) and are covalently bound to the cellulose membrane. Binding assays were performed directly on the peptide array. In general an antigen peptide array is incubated with blocking buffer for several hours to reduce non-specific binding of proteins or antibodies. It follows the incubation with a primary (antigen peptide-binding) antibody in blocking buffer and an incubation with a horseradish peroxidase (HRP)-labelled secondary antibody, which binds selectively the primary antibody. Alternatively a HRP-labelled primary antibody in blocking buffer can be used.
(§2) A short T(Tween)-TBS-buffer washing directly after the incubation of the antigen peptide array with the secondary protein or antibody or the HRP-labelled primary antibody followed by the first chemiluminescence experiment is made to get an first overview which antigen peptides do bind the primary antibody. Several buffer washing steps follow (T-TBS- and TBS-buffer) to reduce false positive binding (unspecific antibody binding to the cellulose membrane itself). After these washing steps the final chemiluminescence analysis is performed. The data were analysed with an imaging system showing the signal intensity (Light units, LU) as single measurements for each peptide. In order to evaluate non-specific binding of secondary antibodies, incubations using the secondary antibody have to be performed in the absence of the primary antibody as control incubation.

[2] = molecular target: T2, peptide 55 (human)
T2 peptide: Ac-GVFAKPSLSAQPG
Protocol: as §1, §2

[3] = molecular target: T3, peptide 131 (human)
T3 peptide: Ac-ARQYYTKGNGGRE
Protocol: as §1, §2

[4] = molecular target: T4, peptide 129 (human)
T4 peptide: Ac-PAGPARQYYTKGN
Protocol: as §1, §2

[5] = molecular target: T5, peptide 66 (human)
T5 peptide: Ac-TLQCQTRYGFDQF
Protocol: as §1, §2

[6] = molecular target: T6, peptide 115 (human)
T6 peptide: Ac-ELTVSFTNKVFTT
Protocol: as §1, §2

[7] = molecular target: T7, peptide 98 (human)
T7 peptide: Ac-SDPLELVVTGTSV
Protocol: as §1, §2

[8] = molecular target: T8, peptide 113 (human)
T8 peptide: Ac-EATAELTVSFTNK
Protocol: as §1, §2

[9] = molecular target: T9, peptide 82 (human)
T9 peptide: Ac-ASFPIITVTAAHS
Protocol: as §1, §2

[10] = molecular target: T10, peptide 86 (human)
T10 peptide: Ac-TAAHSGTYRCYSF
Protocol: as §1, §2

[11] = molecular target: T11, peptide 31 (human)
T11 peptide: Ac-KLSSSRYQDQAVL
Protocol: as §1, §2

[12] = molecular target: T12, peptide 119 (human)
T12 peptide: Ac-KVFTTETSRSITT
Protocol: as §1, §2

[13] = molecular target: T13, peptide 15 (human)
T13 construct: also called SLQALPSSLVPLE
T13 peptide: Ac-SLQALPSSLVPLE
Protocol: as §1, §2

[14] = molecular target: T14, peptide 104 (human)
T14 peptide: Ac-VTPSRLPTEPPSS
Protocol: as §1, §2

[15] = molecular target: T15, peptide 54 (human)
T15 peptide: Ac-ATGVFAKPSLSAQ
Protocol: as §1, §2

[16] = molecular target: T16, peptide 44 (human)
T16 peptide: Ac-RCSYQNGSLWSLP
Protocol: as §1, §2

[17] = molecular target: T17, peptide 91 (human)
T17 peptide: Ac-YSFSSRDPYLWSA
Protocol: as §1, §2

[18] = molecular target: T18, peptide 95 (human)
T18 peptide: Ac-YLWSAPSDPLELV
Protocol: as §1, §2

[19] = molecular target: T19, peptide 53 (human)
T19 peptide: Ac-LVATGVFAKPSLS
Protocol: as §1, §2

[20] = molecular target: T20, peptide 51 (human)
T20 peptide: Ac-DQLELVATGVFAK
Protocol: as §1, §2

[21] = molecular target: T21, peptide 62 (human)
T21 peptide: Ac-AVSSGGDVTLQCQ
Protocol: as §1, §2

[22] = molecular target: T22, peptide 10 (human)
T22 peptide: Ac-PAQSGPLPKPSLQ
Protocol: as §1, §2

[23] = molecular target: T23, peptide 102 (human)
T23 peptide: Ac-TGTSVTPSRLPTE
Protocol: as §1, §2

[24] = molecular target: T24, peptide 88 (human)
T24 peptide: Ac-SGTYRCYSFSSRD
Protocol: as §1, §2

[25] = molecular target: T25, peptide 43 (human)
T25 peptide: Ac-RYRCSYQNGSLWS
Protocol: as §1, §2

[26] = molecular target: T26, peptide 70 (human)
T26 peptide: Ac-GFDQFALYKEGDP
Protocol: as §1, §2

[27] = molecular target: T27, peptide 123 (human)
T27 peptide: Ac-RSITTSPKESDSP
Protocol: as §1, §2

[28] = molecular target: T28, peptide 35 (human)
T28 peptide: Ac-DQAVLFIPAMKRS
Protocol: as §1, §2

[29] = molecular target: T29, peptide 69 (human)
T29 peptide: Ac-RYGFDQFALYKEG
Protocol: as §1, §2

[30] = molecular target: T30, peptide 48 (human)
T30 peptide: Ac-LWSLPSDQLELVA
Protocol: as §1, §2

[31] = molecular target: T31, peptide 75 (human)
T31 peptide: Ac-GDPAPYKNPERWY
Protocol: as §1, §2

[32] = molecular target: T32, peptide 89 (human)
T32 peptide: Ac-TYRCYSFSSRDPY
Protocol: as §1, §2

[33] = molecular target: T33, peptide 47 (human)
T33 peptide: Ac-GSLWSLPSDQLEL
Protocol: as §1, §2

[34] = molecular target: T34, peptide 79 (human)
T34 peptide: Ac-PERWYRASFPIIT
Protocol: as §1, §2

[35] = molecular target: T35, peptide 40 (human)
T35 peptide: Ac-KRSLAGRYRCSYQ
Protocol: as §1, §2

[36] = molecular target: T36, peptide 23 (human)
T36 peptide: Ac-TLRCQGPPGVDLY
Protocol: as §1, §2

[37] = molecular target: T37, peptide 83 (human)
T37 peptide: Ac-FPIITVTAAHSGT
Protocol: as §1, §2

[38] = molecular target: T38, peptide 71 (human)
T38 peptide: Ac-DQFALYKEGDPAP
Protocol: as §1, §2

[39] = molecular target: T39, peptide 16 (human)
T39 peptide: Ac-QALPSSLVPLEKP
Protocol: as §1, §2

[40] = molecular target: T40, peptide 3 (human, cysteine pairing not given here)
T40 peptide: Ac-PTALFCLGLCLGR
Protocol: as §1, §2

[41] = molecular target: T41, peptide 19 (human)
T41 peptide: Ac-LVPLEKPVTLRCQ
Protocol: as §1, §2

B1: monoclonal antibody hGP 5C4 (antibody, V domains shown)
VH: EVKLQESGGGLVQPGRSLKLSCTASGFTFSDYFMSWVRQAPTRGLEWVASISSGGASAYWRDSVKGRFTISRDNAKSALYLQMDSLRSEDTATYFCARGELDFDYWGQGVMVAVSS
VL: ADPNSTLLSASVGDRVTLNCTASQNVYKNLAWYQQKLGEAPRLLLYSANSQTGIPSRFSGSGSGPDFTLTISSLQPEDVASYFCQQYYSGNTFGAGTKLELKR
notes: Rat hybridoma antibody (Lou/C rats), heavy chain gamma 2a, light chain kappa; also called ab 5C4; anti-GPVI mAb 5C4
LU (Light Units) [1]: 8 LU
LU (Light Units) [2]: 810 LU
LU (Light Units) [3]: 289 LU
LU (Light Units) [4]: 139 LU
LU (Light Units) [5]: 82 LU
LU (Light Units) [6]: 143 LU
LU (Light Units) [7]: 141 LU
LU (Light Units) [8]: 135 LU
LU (Light Units) [9]: 149 LU
LU (Light Units) [10]: 58 LU
LU (Light Units) [11]: 211 LU
LU (Light Units) [12]: 287 LU
LU (Light Units) [13]: 74 LU
LU (Light Units) [14]: 91 LU
LU (Light Units) [15]: 1210 LU
signal to noise ratio [15]: ~4 ratio
LU (Light Units) [16]: 9 LU
LU (Light Units) [17]: 67 LU
LU (Light Units) [18]: 120 LU
LU (Light Units) [19]: 359 LU
LU (Light Units) [20]: 73 LU
LU (Light Units) [21]: 49 LU
LU (Light Units) [22]: 1330 LU
LU (Light Units) [23]: 160 LU
LU (Light Units) [24]: 64 LU
LU (Light Units) [25]: 64 LU
LU (Light Units) [26]: 3 LU
LU (Light Units) [27]: 91 LU
LU (Light Units) [28]: 186 LU
LU (Light Units) [29]: 78 LU
LU (Light Units) [30]: 47 LU
LU (Light Units) [31]: 95 LU
LU (Light Units) [32]: 46 LU
LU (Light Units) [33]: 79 LU
LU (Light Units) [34]: 119 LU
LU (Light Units) [35]: 139 LU
LU (Light Units) [36]: 76 LU
LU (Light Units) [37]: 75 LU
LU (Light Units) [38]: 29 LU
LU (Light Units) [39]: 80 LU
LU (Light Units) [40]: 74 LU
LU (Light Units) [41]: 157 LU
